To fix the notation:
T1: human MS4A6A ECL1 peptide (amino acid residues 68-85) (human)
T1 peptide: SASFSPNFTQVTSTLLNS

T2: human MS4A6A ECL2 peptide (amino acid residues 138-185) (human)
T2 peptide: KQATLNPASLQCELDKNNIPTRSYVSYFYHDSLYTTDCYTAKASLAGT

T3: human MS4A4A ECL2 peptide (amino acid residues 159-179), free (human)
T3 construct: synthetic peptide; also called huMS4A4A-ELC2 free-peptide
T3 peptide: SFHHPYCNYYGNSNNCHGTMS

T4: human MS4A4A ECL1 peptide (amino acid residues 86-98) (human)
T4 construct: synthetic peptide
T4 peptide: CMASNTYGSNPIS

T5: BSA-conjugated human MS4A4A ECL2 peptide (amino acid residues 159-179) (human, conjugated to BSA (site not stated))
T5 construct: also called MS4A4A-ECL2 BSA conjugated peptide; BSA-MS4A4A-ELC2 peptide
T5 peptide: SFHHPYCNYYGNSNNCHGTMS

B1: anti-MS4A4A antibody 4A-19 (antibody, V domains shown)
VH: QVQLQQSGAELARPGASVKLSCKASGYSFIDYGISWVKQRTGQGLEWIGEIYPRSGNTYYNEKFKGKATLTADKSSSTAYMELRSLTSEDSAVYFCARKGLLRDFDYWGQGTTLTVSS
VL: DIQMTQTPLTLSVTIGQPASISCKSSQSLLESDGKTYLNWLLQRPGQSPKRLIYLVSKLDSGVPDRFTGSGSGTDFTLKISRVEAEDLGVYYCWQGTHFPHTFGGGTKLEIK
notes: murine hybridoma antibody
B2: anti-MS4A4A antibody 4A-9 (antibody, V domains shown)
VH: DVQLQESGPGLVKPSQSLSLTCSVTGYSITSGYYWNWIRQFPGNKLEWMGYISYDGNNKYNPSLKNRISITRDTSKNQFFLKLNSVTTEDTATYYCANRDYWGQGTTLTVSS
VL: DVLMTQTPLSLPVSLGDQASISCRSSQNIVHSNGITYLEWFLQKPGQSPTLLIYKISNRFSGVPDRFSGSGSGTDFTLKISRVEAEDLGVYYCFQGSHVPYTFGGGTKLDIK
notes: murine hybridoma antibody
B3: anti-MS4A4A antibody 4A-2 (antibody, V domains shown)
VH: QIQLVQSGPELKKPGETVKISCKASGYTFVDYEMNWVKQAPGKGLEWLGWINTYTGEPTYADDFQGRFAFSLVTSVSTAYLQINNLKHEDMATYLCTRNYYYGNGDVMDYWGQGTSVTVSS
VL: QIVLTQSPAIMSASPGEKVTITCSASSSVSYIHWFQQKPGTSPKLWIYSTSNLASGVPARFSGSGSGTSYSLTISRMEAEDAATYYCQQRTGFPLTFGGGTQLEIK
notes: murine hybridoma antibody
B4: anti-MS4A4A antibody 4A-7 (antibody, V domains shown)
VH: EIQLQQTGPELVKPGASVKISCKASGYSFTDYVMIWVKQSHGKSLEWIGNINPYYGSTSYNLKFKGKATLTVDKSSSTAYMQLKSLTSEDSAVYYCARYGYDALDNWGQGTSVTVSS
VL: DVLLTQTPLSLPVSLGDQASISCRSSQSIVHSNGNTYLDWSLQKPGQSPKLLIYRVSNRFSGVPDRFSGSGSGTDFTLKISRVEAEDLGVYYCFQGSHVPLTFGAGTKLELK
notes: murine hybridoma antibody
B5: anti-MS4A4A antibody 4A-8 (antibody, V domains shown)
VH: EVKLVESGGGLVQPGGSLKLSCATSGFTFSDYYMYWVRQTPEKRLEWVAYINNGGGSTYYPDTVKGRFTISRDNAKNTLYLQMSRLKSEDTAMYYCARQGNLIYYSGSSLFAYWGQGTMVTVSS
VL: B4 VL with L4M, G34R, D39E, S41Y, L42V, R55K, L101W, A105G, L111I
notes: murine hybridoma antibody
B6: anti-MS4A4A antibody 4A-15 (antibody, V domains shown)
VH: EIQLQQTGPDLVKPGASVKISCKASGYSFTDYVILWVKQSHGKTLEWIGHINPYYANSDYNVNFRGKATLTVDKSSSTAHMQLNSLTSEDSAVYYCVRYGSGMDYWGQGTSVTVSS
VL: B4 VL with L4M, N33D, D39E, S41Y, R55K, V99F
notes: murine hybridoma antibody
B7: anti-MS4A4A antibody 4A-11 (antibody, V domains shown)
VH: EVKLEESGGGLVQPGGSMKLSCAASGFTFSDAWMDWVRQSPEKGLEWVAEIRSKTDNHATYFAESVKGRFTISRDDSKSSVYLQMNSLRAGDTGIYYCYGSTFASWGQGTLVTVSS
VL: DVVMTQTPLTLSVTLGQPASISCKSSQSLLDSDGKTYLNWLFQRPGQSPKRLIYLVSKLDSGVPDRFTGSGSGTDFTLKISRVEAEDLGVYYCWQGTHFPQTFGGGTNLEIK
notes: murine hybridoma antibody
B8: anti-MS4A4A antibody 4A-203 (murine) (antibody, V domains shown)
VH: DVKLVESGGGLVKLGGSLKLSCAASGFTFSSFYMSWVRQTPEKRLELVAAINSNGGSTYYPDTVKGRFTISRDNAKNTLYLQMSSLKSEDTALYYCARQNYYGSSSYWYFDVWGAGTTVTVSS
VL: EIVLTQSPALMAASPGEKVTITCSVSSSISSSNLHWYRQKSETSPKPWIYGTSNLASGVPVRFSGSGSGTSYSLTISSMEAEDAATYYCQQWSRYPLTFGAGTKLELK
notes: murine hybridoma antibody
B9: anti-MS4A4A antibody 4A-210 (murine) (antibody, V domains shown)
VH: DVKLVESGGGLVKPGGSLKLSCAASGFTFGTYTMSWVRQTPEKRLEWVATISSGGSYTFYPDSVKGRFTISRDNAKNTLYLQMSSLKSEDTAMYYCTRDNTTGDRGWYFDVWGAGTTVTVSS
VL: DIVLTQSPVSLAVSLGQRATISCQASESVSFAGKSLMHWFQQKPGQPPKLLIYRASNLESGVPARFSGSGSESDFTLTIDPVEEDDATMYYCMQSMEDPRTFGGGTKLEIK
notes: murine hybridoma antibody

Numbering of substitutions follows the chain as printed.

This note sets out measurements from US20230126400A1 (Alector, published 2023).

For the first assay, the target named is T1, human MS4A6A ECL1 peptide (amino acid …). As to the kind of experiment: array SPR. The method, then: (§1) Binding kinetic characterization of the anti-MS4A4A antibodies to MS4A4A ECL1 and ECL2 and to MS4A6A ECL1 and ECL2 peptides was performed by Carterra (South San Francisco, Calif.) using a proprietary array Surface Plasmon Resonance (SPR) instrument (MX-96) as follows. Antibodies were captured onto a CMD500D chip (Xantec # SPMX CMD500D) using the Continous Flow Microspotter (CFM). First, the chip was activated with 100 mM MES pH 5.5, 100 μL EDC (133 mM final), 100 μL of S-NHS (33.3 mM final), for 7 minutes. […] Anti-MS4A4A hydridoma supernatant or purified anti-MS4A4A antibodies were diluted in HBS-EP+ buffer (Teknova Cat # H8022) and then printed as duplicates with a 20 minute and a 5-minute print from the same sample solution.
(§2) These were then injected on the chip for five minutes, followed by a seven-minute dissociation period at 8 uL per second in a non-regenerative kinetic series. Duplicate measurements for each anti-MS4A4A antibody were taken to ensure reproducibility. Association rates (Kon) and dissociation rates (Koff) were calculated using a single one-to-one Langmuir binding model. The equilibrium dissociation constant (KD) was calculated as the ration of Koff/Kon.
As for B1, the binding result was “no binding (tested: 2000 nM)”.
Consider B2, for which the binding result is “no binding (tested: 2000 nM)”.
On the same count and under the same terms, with B3 the entry was “no binding (tested: 2000 nM)”; with B4, “no binding (tested: 2000 nM)”; with B5, “no binding (tested: 2000 nM)”.
Regarding B6, the binding result is “no binding (tested: 2000 nM)”.
As for B7, the binding result is recorded as “no binding (tested: 2000 nM)”.

For a further assay, the target named is T2, human MS4A6A ECL2 peptide (amino acid …). Briefly: array SPR. The method, then: as §1, §2
As for B1, the binding result was “no binding (tested: 2000 nM)”.
In the case of B2, the binding result is listed as “no binding (tested: 2000 nM)”.
Same read-out and setting: then B3, with “no binding (tested: 2000 nM)”; and B4, with “no binding (tested: 2000 nM)”; and B5, with “no binding (tested: 2000 nM)”.
In the case of B6, the binding result is listed as “no binding (tested: 2000 nM)”.
With B7, the binding result is given as “no binding (tested: 2000 nM)”.

Another assay concerns the target T3, human MS4A4A ECL2 peptide (amino acid …). Briefly: peptide ELISA, supernatant. For orientation: An ELISA detects its analyte on a solid surface through an enzyme-linked reagent.
Consider B8, for which the binding result was “no binding”.
Consider B9, for which the binding result is on record as “no binding”.

For the next assay, the target named is T4, human MS4A4A ECL1 peptide (amino acid …). As to the kind of experiment: ELISA, hybridoma supernatant. The method, then:
(§3) Briefly, 96-well polystyrene plates were coated with 1-10 μg/ml of synthetic free or BSA-conjugated peptides in coating buffer (0.05M carbonate buffer, pH9.6, Millipore Sigma C3041) overnight at 4° C. Coated plates were then blocked with ELISA diluent (PBS+0.5% BSA+0.05% Tween20) for 1-hour, washed 3×300 μL in PBST (PBS+0.05% Tween20, Thermo Cat#28352), and then the antibodies were added to the plate (50 μl/ml). After 30 mins incubation (room temperature, with shaking), the plates were washed 3×300 μL in PBST. […] After a final set of washes (3×300 μL in PBST), 50 μL of TMB substrate (BioFx TMBW-1000-01) was added and the reaction was then quenched after 5-10 mins with 50 μL of stop solution (BioFx BSTP-1000-01). The quenched reaction wells were detected for absorbance at 650 nm with a BioTek Synergy Microplate Reader using GENS 2.04 software.
With B1, the binding result is recorded as “no binding”.
Regarding B2, the binding result is given as “no binding”.
The same measure, in the same setting: then B3, with “no binding”.
Turning to B4, the binding result is given as “no binding”.
The same measure, in the same setting: with B5 the entry was “no binding”; with B6, “no binding”.
With B7, the binding result was “no binding”.

The next assay concerns the target T5, BSA-conjugated human MS4A4A ECL2 …. As to the kind of experiment: ELISA, supernatant. The method, then:
as §3
B1: the binding result is listed as “binds”.
Same read-out and setting: then B2, with “binds”; and B3, with “binds”; and B4, with “binds”.
Take B5: the binding result is “binds”.
With B6, the binding result was “binds”.
Turning to B7, the binding result is reported as “binds”.

A further assay deals with T4, human MS4A4A ECL1 peptide (amino acid …). As to the kind of experiment: peptide ELISA. The method, then: as §3, with “[…]” for “1-10 μg/ml”, “Cat#C3041)” for “C3041)”, “μl/well).” for “μl/ml).”, “Cat#TMBW-1000-01)” for “TMBW-1000-01)”, “Cat#BSTP-1000-01).” for “BSTP-1000-01).”, “650nm” for “650 nm”
With B8, the binding result is reported as “no binding”.
B9: the binding result is “no binding”.

The target of a further assay is T6, cynomolgus (cyno) MS4A4A (cynomolgus).
T6 construct: also called cy4A; Cyno 4A
Briefly: FACS, HEK293, supernatant. The method, then: (§4) Positive clones identified above were expanded and then rescreened for specificity against HEK293 cells overexpressing human MS4A4A or cyno MS4A4A and parental HEK293 cells. These experiments were performed using supernatants from hybridoma clones which had undergone further expansion after initial selection. Briefly, previously prepared, cryopreserved transiently-transfected cells were labeled with LIVE/DEAD Fixable Aqua Dead Cell Stain Kit (ThermoFisher Scientific L34957) on ice for 30 minutes. After a wash with PBS, 2×10⁵ cells were aliquoted per well in 96-well U-bottom plates and incubated with 50 μl of culture supernatant on ice for 30 minutes. […] Following this secondary incubation, the cells were again washed twice with ice-cold FACS buffer and resuspended in a final volume of 200 μl of FACS buffer. Analysis was performed on a FACS Canto system (BD Biosciences), with sort gates drawn to exclude dead (Aqua-positive) cells. Positive clones (fold change of 1.8 or greater) were carried forward for further testing.
(Flow cytometry measures light scatter and fluorescence of single cells or particles in a stream.)
On to B1, for which the “Cyno 4A:parental cell ratio” value is 1.51 ratio.
The same measure, in the same setting: with B2 the figure was 3.46 ratio.
With B3, the “Cyno 4A:parental cell ratio” value was determined as 9.63 ratio.
Same read-out and setting: then B4, with 3.98 ratio.
Still for that read-out and setting: with B5 the figure was 3.3 ratio; with B6, 4.67 ratio.
In the case of B7, the “Cyno 4A:parental cell ratio” value is 2.11 ratio.

For another assay, the target named is human MS4A4A (human, UniProt Q96JQ5 1-239). As to the kind of experiment: FACS, HEK293, supernatant. The method, then: as §4
In the case of B1, the “Human 4A:parental cell ratio” value is 1.86 ratio.
Turning to B2, the “Human 4A:parental cell ratio” value was found to be 8.2 ratio.
Still for that read-out and setting: with B3 the figure was 20.2 ratio; with B4, 7.97 ratio.
B5: the “Human 4A:parental cell ratio” value came out at 5.7 ratio.
Consider B6, for which the “Human 4A:parental cell ratio” value came to 8.13 ratio.
Take B7: the “Human 4A:parental cell ratio” value was determined as 9.12 ratio.
